According to the supplement of paper PMC6757056:
± gives the standard deviation of the averaged measurements.

B1: library; a variant is named by its letters at N, in order (parent)
chain: GCUGUCACCGAGAAACUGUGAAGUAUAUCUUAAACCUGGGCACUUAAAAGAUAUAUGGAGUUAGUAGUGCAACCUGCUCGGUCUGAUGAGUCCNNNNNNGGACGAAACAGC

Key:
[1] = variants of: B1; assay: normalized RNA/DNA level without ligand (relative to sTRSVctl = 100) (log10 (% of sTRSVctl)); HEK293T; ligand: cyclic di-GMP (c-di-GMP-II aptamer); higher = less ribozyme self-cleavage, higher mRNA level; details: reporter: mCherry (pCS4076), ligand present: no
Summary of the method: (§1)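 RNA level was computed as RNA reads over DNA reads divided by a spiked-in non-cleaving sequence or by the top sequences, then scaled and log-transformed. Scaling was ×100 with log10, the top group was 25 sequences, and the threshold was ≥100 DNA reads. The reads came from HEK293T cells transfected at 4 µg per 6-well well with ribozyme switch library plasmids (mCherry, or eGFP in some ligand experiments). Total RNA was extracted with EDTA 72 h after transfection, with any ligand added 1 h before it.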

[2] = variants of: B1; assay: normalized RNA/DNA level with ligand (relative to sTRSVctl = 100) (log10 (% of sTRSVctl)); HEK293T; ligand: cyclic di-GMP (c-di-GMP-II aptamer); ligand concentration (+) RNA-Seq: 1 mM; higher = less ribozyme self-cleavage, higher mRNA level; details: reporter: mCherry (pCS4076), ligand present: yes
Summary of the method: as §1

| Variant | normalized RNA/DNA level without ligand (log10) [1] | normalized RNA/DNA level with ligand (log10) [2] |
| --- | --- | --- |
| CCUUAC | 1.71 ± 0.0031 | 1.83 ± 0.12 |
| CCUUAU | 1.6 ± 0.034 | 1.79 ± 0.087 |
| AGAUUC | 1.7 ± 0.021 | 1.85 ± 0.093 |
| AGAUUU | 1.66 ± 0.052 | 1.81 ± 0.17 |
| AGAUUG | 1.58 ± 0.049 | 1.77 ± 0.081 |
| GGAUAC | 1.67 ± 0.049 | 1.78 ± 0.16 |
| CGCACA | 1.41 ± 0.091 | 1.59 ± 0.11 |
| CGCACC | 1.7 ± 0.031 | 1.83 ± 0.12 |
| CGCACG | 1.75 ± 0.038 | 1.85 ± 0.08 |
| CGCACU | 1.48 ± 0.12 | 1.71 ± 0.058 |
| UCUUGC | 1.752 ± 0.0056 | 1.88 ± 0.11 |
| UCUUGU | 1.732 ± 0.004 | 1.88 ± 0.1 |
| UCUUGG | 1.84 ± 0.039 | 1.93 ± 0.15 |
| CGAUUC | 1.63 ± 0.022 | 1.81 ± 0.075 |
| CGAUUG | 1.7 ± 0.019 | 1.89 ± 0.03 |
| CGAUUU | 1.43 ± 0.11 | 1.64 ± 0.13 |
| CGAUUA | 1.28 ± 0.11 | 1.43 ± 0.12 |
| UGAAUG | 1.72 ± 0.037 | 1.86 ± 0.12 |
| UGAAUA | 1.677 ± 0.0075 | 1.82 ± 0.096 |
| UGAAUU | 1.683 ± 0.0066 | 1.84 ± 0.13 |
| CCUUCC | 1.779 ± 0.0029 | 1.87 ± 0.12 |
| CCUUCG | 1.74 ± 0.0028 | 1.87 ± 0.14 |
| ACUUUG | 1.59 ± 0.037 | 1.76 ± 0.12 |
| ACUUUC | 1.73 ± 0.042 | 1.85 ± 0.13 |

| Variant | normalized RNA/DNA level without ligand (log10) [1] | normalized RNA/DNA level with ligand (log10) [2] |
| --- | --- | --- |
| GGAACC | 1.74 ± 0.039 | 1.86 ± 0.14 |
| AGAGGG | 1.47 ± 0.098 | 1.62 ± 0.13 |
| AGAGGC | 1.665 ± 0.0051 | 1.77 ± 0.13 |
| AGAGGU | 1.57 ± 0.022 | 1.73 ± 0.077 |
| UCUUAU | 1.683 ± 0.012 | 1.85 ± 0.14 |
| UCUUAC | 1.704 ± 0.017 | 1.86 ± 0.054 |
| CGACGG | 1.667 ± 0.013 | 1.8 ± 0.16 |
| CGACGU | 1.66 ± 0.034 | 1.84 ± 0.048 |
| CGACGC | 1.74 ± 0.04 | 1.82 ± 0.12 |
| ACUUCC | 1.776 ± 0.013 | 1.89 ± 0.08 |
| ACUUCU | 1.707 ± 0.0019 | 1.84 ± 0.057 |
| ACUUCA | 1.648 ± 0.014 | 1.83 ± 0.082 |
| ACUUCG | 1.66 ± 0.067 | 1.79 ± 0.069 |
| UGCAGC | 1.77 ± 0.031 | 1.87 ± 0.11 |
| UGCAGA | 1.63 ± 0.031 | 1.8 ± 0.096 |
| AGAGAU | 1.661 ± 0.0087 | 1.79 ± 0.11 |
| AGAGAG | 1.46 ± 0.09 | 1.64 ± 0.14 |
| AGAGAC | 1.56 ± 0.035 | 1.69 ± 0.088 |
| AGACUC | 1.74 ± 0.054 | 1.83 ± 0.094 |
| AGACUU | 1.679 ± 0.0077 | 1.84 ± 0.13 |
| AGACUG | 1.749 ± 0.013 | 1.84 ± 0.071 |
| CGACAC | 1.594 ± 0.0068 | 1.76 ± 0.11 |
| CGACAU | 1.43 ± 0.16 | 1.63 ± 0.12 |
| CGACAG | 1.8 ± 0.023 | 1.87 ± 0.091 |

| Variant | normalized RNA/DNA level without ligand (log10) [1] | normalized RNA/DNA level with ligand (log10) [2] |
| --- | --- | --- |
| CGAAUG | 1.66 ± 0.019 | 1.85 ± 0.047 |
| CGAAUC | 1.6 ± 0.043 | 1.78 ± 0.11 |
| GGAUCA | 1.63 ± 0.02 | 1.77 ± 0.13 |
| GGAUCC | 1.86 ± 0.058 | 1.93 ± 0.055 |
| GGACCA | 1.72 ± 0.021 | 1.81 ± 0.021 |
| GGACCU | 1.74 ± 0.07 | 1.85 ± 0.05 |
| GGAAAA | 1.3 ± 0.025 | 1.49 ± 0.12 |
| GGAAAC | 1.74 ± 0.088 | 1.83 ± 0.19 |
| UGAGGA | 1.54 ± 0.091 | 1.75 ± 0.088 |
| UGAGGC | 1.74 ± 0.028 | 1.87 ± 0.12 |
| UGAGGG | 1.63 ± 0.045 | 1.79 ± 0.083 |
| UGAGGU | 1.61 ± 0.052 | 1.79 ± 0.12 |
| GGCACG | 1.76 ± 0.026 | 1.88 ± 0.039 |
| GGCACA | 1.69 ± 0.024 | 1.8 ± 0.12 |
| GGCACC | 1.75 ± 0.06 | 1.82 ± 0.085 |
| GGCACU | 1.73 ± 0.12 | 1.885 ± 0.0081 |
| CGAGCA | 1.83 ± 0.067 | 1.89 ± 0.12 |
| CGAGCC | 1.824 ± 0.0092 | 1.88 ± 0.083 |
| CGAGCU | 1.82 ± 0.022 | 1.88 ± 0.077 |
| UGAUGG | 1.68 ± 0.081 | 1.83 ± 0.066 |
| UGAUGC | 1.754 ± 0.01 | 1.84 ± 0.09 |
| UCUUCU | 1.76 ± 0.066 | 1.84 ± 0.11 |
| UCUUCG | 1.79 ± 0.055 | 1.89 ± 0.12 |
| UCUUCA | 1.75 ± 0.057 | 1.8 ± 0.1 |

| Variant | normalized RNA/DNA level without ligand (log10) [1] | normalized RNA/DNA level with ligand (log10) [2] |
| --- | --- | --- |
| UCUUCC | 1.79 ± 0.059 | 1.92 ± 0.13 |
| UGAUCC | 1.89 ± 0.055 | 1.98 ± 0.075 |
| UGAUCU | 1.72 ± 0.023 | 1.86 ± 0.11 |
| UGAUCG | 1.77 ± 0.053 | 1.84 ± 0.15 |
| UGAUCA | 1.76 ± 0.073 | 1.88 ± 0.11 |
| UCUUUG | 1.731 ± 0.0025 | 1.89 ± 0.069 |
| UCUUUC | 1.755 ± 0.014 | 1.86 ± 0.089 |
| UCUUUU | 1.744 ± 0.012 | 1.84 ± 0.073 |
| UCUUUA | 1.65 ± 0.031 | 1.84 ± 0.11 |
| CGAACC | 1.679 ± 0.01 | 1.8 ± 0.098 |
| CGAACU | 1.48 ± 0.18 | 1.72 ± 0.042 |
| CGAACG | 1.75 ± 0.056 | 1.9 ± 0.089 |
| CCUUUG | 1.59 ± 0.078 | 1.77 ± 0.053 |
| CCUUUU | 1.59 ± 0.065 | 1.77 ± 0.073 |
| CCUUUC | 1.7 ± 0.021 | 1.85 ± 0.098 |
| GGAGCC | 1.85 ± 0.011 | 1.9 ± 0.1 |
| GCUUAU | 1.6 ± 0.017 | 1.76 ± 0.13 |
| GCUUAC | 1.53 ± 0.026 | 1.75 ± 0.075 |
| UGACCA | 1.7585 ± 0.0012 | 1.88 ± 0.074 |
| UGACCC | 1.798 ± 0.013 | 1.89 ± 0.087 |
| UGACCU | 1.72 ± 0.016 | 1.87 ± 0.087 |
| AGCAAG | 1.51 ± 0.09 | 1.68 ± 0.079 |
| AGCAAC | 1.65 ± 0.032 | 1.77 ± 0.092 |
| CGAAGC | 1.7 ± 0.06 | 1.81 ± 0.054 |

| Variant | normalized RNA/DNA level without ligand (log10) [1] | normalized RNA/DNA level with ligand (log10) [2] |
| --- | --- | --- |
| CGAAGG | 1.634 ± 0.0028 | 1.82 ± 0.097 |
| CGAAGU | 1.676 ± 0.0054 | 1.84 ± 0.16 |
| GGAGUC | 1.55 ± 0.046 | 1.79 ± 0.051 |
| CGAUCU | 1.52 ± 0.053 | 1.7 ± 0.073 |
| CGAUCG | 1.8 ± 0.04 | 1.87 ± 0.1 |
| CGAUCA | 1.6 ± 0.026 | 1.74 ± 0.12 |
| CGAUCC | 1.82 ± 0.026 | 1.9 ± 0.088 |
| GGAUGC | 1.7 ± 0.079 | 1.83 ± 0.067 |
| UGCAAC | 1.728 ± 0.0076 | 1.87 ± 0.099 |
| UGCAAG | 1.777 ± 0.0085 | 1.9 ± 0.088 |
| UGCAAA | 1.74 ± 0.0094 | 1.84 ± 0.1 |
| CGACCC | 1.753 ± 0.014 | 1.88 ± 0.1 |
| CGACCU | 1.54 ± 0.028 | 1.71 ± 0.09 |
| CGACCA | 1.667 ± 0.013 | 1.77 ± 0.12 |
| GGACGC | 1.656 ± 0.0062 | 1.82 ± 0.1 |
| AGACGG | 1.62 ± 0.088 | 1.78 ± 0.089 |
| AGCACA | 1.58 ± 0.029 | 1.72 ± 0.12 |
| AGAACG | 1.463 ± 0.001 | 1.67 ± 0.094 |
| CGCAAG | 1.77 ± 0.024 | 1.86 ± 0.088 |
| CGCAAC | 1.62 ± 0.05 | 1.78 ± 0.12 |
